Each block holds one substance with its values, some of them ahead of it. No end group written: not given here.
Columns and labels:
human CN = target: T1, human CN (Homo sapiens, UniProt P63098+Q08209); test: Phosphatase activity assay of CN on pNPP; format: biochemical; conditions: pNPP substrate; 0.01 mM
T1 construct: made in house; host or cells: bacteria
Description: Phosphatase Activity Assay of CN on pNPP (Paranitrophenylphosphate).
The quantity of the product of the enzymatic reaction at basic pH (paranitrophenolate=PNP) was measured by absorbance at 405 nm, converting this numerical value to a concentration by means of interpolation from a straight-line PNP pattern.

[1] = tested on: NFATc2 dephosphorylation in HeLa cells; test: NFATc2 dephosphorylation in transfected HeLa cells (Western blot); format: cell-based; conditions: HeLa co-transfected with HA-NFATc2; PMA + calcium ionophore 1 hour, FIG. 8A
Description: The HeLa cells were cultivated in Dulbecco medium modified by Eagle (DMEM) (Gibco) completed with 10% bovine foetal serum (FBS) (Sigma). The day prior to transfection, the cells were seeded in 6-well plates in order to reach an 80% confluence at the moment of transfection. The cells were transfected with 18 ng of pEF-BOS HA-NFATc2 plus 1.1 μg of the GFP-peptide plasmids with 4 μl of Plus reagent plus 6 μl of Lipofectamine reagent (Invitrogen) for 3 hours in 1 ml of OPTIMEM medium (Gibco). By means of flow cytometry, the transfection efficiency and the percentage of cells which expressed GFP were quantified. Similar transfection efficiencies were obtained for the different constructs and in independent experiments.
Twenty-four hours after the transfection, the HeLa culture medium was replaced by DMEM+1% FBS. After a further two hours, the cells were stimulated during 1 hour using 20 ng/ml of PMA (phorbol 12 myristrate 13 acetate) (Sigma) plus 1 μM of calcium ionophore A23187 (Sigma) and 3 mM of CaCl2. […] After three washes with PBS-T and one additional wash with H2O, the antibody bound to the membranes was detected by means of the ECL system (Amersham Biosciences).

[2] = tested on: nuclear translocation of NFATc2 in HeLa cells; test: Subcellular localisation of NFATc2 in transfected HeLa cells (immunofluorescence); format: cell-based; conditions: HeLa co-transfected with HA-NFATc2; calcium ionophore 30 min, FIG. 8B
Description: The HeLa cells were transfected as described in the previous section using 1.2 μg of the GFP-peptide expression plasmids with 40 ng of pEF-BOS HA-NFATc2. Two hours before the stimulation, the culture medium was replaced with DMEM+1% FBS. After stimulating during 30 min. with calcium ionophore A23187 (1 μm) and CaCl2 (3 mM), the cells were fixed at ambient temperature during 10 min. with a 10% solution of formaldehyde in PBS containing 4% saccharose. Subsequently, they were washed three times with PBS and were permeabilised at ambient temperature during 10 min. with a solution of PBS with 0.25% of Triton X-100. The cells were subsequently incubated during 20 min. with a blocking buffer (10% BSA in PBS) and subsequently with a 1:500 solution of the 12CA5 antibody (anti-HA) during one hour. The subcellular localisation of the NFATS was detected using a fluorescence microscope (Axiovert-200, Zeiss) using a mouse anti-IgG conjugated with the Alexa 594 fluorochrome (Molecular Probes) as a secondary antibody. The percentage of cells with nuclear or cytosolic distribution of NFAT was calculated using not less than 130 positive cells per transfection.

CN (Calcineurin) = target: T2, CN (Calcineurin) (UniProt P48452+P63098); test: Pull-down of CN by GST-peptide fusion proteins (FIG. 3); format: binding; conditions: Western blot
T2 construct: purchased Sigma
Description: (§1) The GST fusion proteins were expressed in the protease-deficient strain of E. coli BL2(DE3). They were purified using the glutathione (GSH)-Sepharose B beads reagent (Amersham Biosciences). The binding of CN to these GST fusion proteins was used to carry out pull-down tests, which were performed as explained below. A variable amount of the beads which contained the GST fusion proteins fused to the regulatory NFAT domains (1-2 μg) or to the peptides (10-30 μg). These were washed twice with the binding buffer (20 mM Tris pH 8, 100 mM NaCl, 1.5 mM CaCl2, 6 mM MgCl2, 1 mM PMSF, 1 μm DTT, 1 μg/ml of aprotinine, 1 μg/ml of pepstatin, 100 μM of benzamidine and 0.2% of Triton X-100) and were subsequently incubated during 30 min. in a rotary shaker at 4° C. with a solution of 20 nM of Calcineurin (Sigma) plus 600 nM of Calmodulin (Sigma) in a binding buffer with or without the corresponding peptide. Subsequently, the samples were centrifuged briefly at 4° C. Laemmli buffer was added to the supernatants (unbound fraction), which were set aside for later analysis. […] The Calcineurin was detected by Western blot using an anti-CnA monoclonal mouse antibody (clone G182-1847, PharMingen). Where indicated, the amount of CN bound to the GST fusion proteins was quantified by densitometry using the Quantity One program (BIO-RAD).

[3] = target: T3, CN-NFATc1 interaction (GST-NFATc1) (Homo sapiens, UniProt P63098+Q08209); test: In vitro competition of CN binding to GST-NFATc1 by synthetic peptides
T3 construct: purchased Sigma
Description: as §1

[4] = target: T4, CN-NFATc2 interaction (GST-NFATc2) (Homo sapiens, UniProt P63098+Q08209); test: In vitro competition of CN binding to GST-NFATc2 by synthetic peptides
T4 construct: purchased Sigma
Description: The GST fusion proteins were expressed in the protease-deficient strain of E. coli BL2(DE3). They were purified using the glutathione (GSH)-Sepharose B beads reagent (Amersham Biosciences). The binding of CN to these GST fusion proteins was used to carry out pull-down tests, which were performed as explained below. A variable amount of the beads which contained the GST fusion proteins fused to the regulatory NFAT domains (1-2 μg) or to the peptides (10-30 μg). These were washed twice with the binding buffer (20 mM Tris pH 8, 100 mM NaCl, 1.5 mM CaCl2, 6 mM MgCl2, 1 mM PMSF, 1 μm DTT, 1 μg/ml of aprotinine, 1 μg/ml of pepstatin, 100 μM of benzamidine and 0.2% of Triton X-100) and were subsequently incubated during 30 min. in a rotary shaker at 4° C. with a solution of 20 nM of Calcineurin (Sigma) plus 600 nM of Calmodulin (Sigma) in a binding buffer with or without the corresponding peptide. Subsequently, the samples were centrifuged briefly at 4° C. Laemmli buffer was added to the supernatants (unbound fraction), which were set aside for later analysis. The beads were washed five times with cold, recently prepared binding buffer and Laemmli buffer was added; the samples were boiled to separate the bound proteins (bound fraction). The bound and unbound fractions were loaded onto 10% SDS-polyacrylamide gels and were separated by electrophoresis under reducing conditions. The Calcineurin was detected by Western blot using an anti-CnA monoclonal mouse antibody (clone G182-1847, PharMingen). Where indicated, the amount of CN bound to the GST fusion proteins was quantified by densitometry using the Quantity One program (BIO-RAD).

[5] = target: T5, CN (Calcineurin) phosphatase activity on RII phosphopeptide (Homo sapiens, UniProt P63098+Q08209); test: Phosphatase activity assay of CN on RII substrate; format: biochemical; conditions: in vitro, FIG. 9
T5 construct: purchased Biomol
Description: The effect of the peptides mentioned (Example 7, FIG. 9) on the enzymatic activity of CN on the RII peptide was analysed using the “Biomol Green Calcineurin” assay kit by Biomol in accordance with the manufacturer's instructions. The combination of CsA (Sandoz) plus cyclophilin (CyP) (Sigma) was used to inhibit Calcineurin activity in vitro.

[6] = target: T6, GST-LxVPc1-CN interaction (Homo sapiens, UniProt P63098+Q08209); test: Cross-competition of GST-LxVPc1-CN interaction (FIG. 7); format: binding; conditions: free competitor peptide, VIVIT 12 μM
T6 construct: purchased Sigma
Description: as §1

[7] = summary of LxVP and PxIxIT peptides

T1 sequence (P63098 whole entry, other chains not shown): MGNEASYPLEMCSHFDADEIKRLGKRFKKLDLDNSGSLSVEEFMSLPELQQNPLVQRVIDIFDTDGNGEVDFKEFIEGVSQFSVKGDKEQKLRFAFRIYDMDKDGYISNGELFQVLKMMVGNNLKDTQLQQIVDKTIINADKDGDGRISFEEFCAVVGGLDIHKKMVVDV

Substance: GFP-LxVPc1: GFP fusion protein with the LxVP peptide of NFATc1, expressed in HeLa cells
effect on induced NFATc2 dephosphorylation [1]: blocked induced NFATc2 dephosphorylation | cells with cytosolic NFATc2 staining [2]: 77%

Substance: GFP-LxVPc2: GFP fusion protein with the LxVP peptide of NFATc2 (SILLVPPTWPKPLVP; also: GFP fusion protein)
effect on induced NFATc2 dephosphorylation [1]: had no effect

Substance: PxIxITc1: PxIxIT peptide corresponding to NFATc1 (ALESPRIEITSCLGL)
competition of CN binding to GST-NFATc2 ([4]; 100 μM peptide, FIG. 4B): efficiently blocked the interaction of CN with NFATc2

Continued, in another order:

% CN activity (human CN): 103.3 ± 7.1%
Substance: CypA: cyclophilin A, immunophilin, used separately as negative control

amount of CN bound to GST-peptide fusion protein (CN (Calcineurin)): incapable of binding CN
Substance: GST-LxVPc2: GST protein fused with the LxVP motif of NFATc2 (SILLVPPTWPKPLVP; also: fused to GST protein)

competition of in vitro interaction of CN with NFATc1, overall [3, 7]: did not efficiently compete | competition of CN binding to GST-NFATc2 ([4]; 100 μM peptide, FIG. 4B): incapable of affecting the binding | competition of CN binding to GST-NFATc2 ([4]; concentrations as high as 300 μM, FIG. 4B): partial inhibition | competition of in vitro interaction of CN with NFATc2, overall [4, 7]: did not efficiently compete
Substance: LxVPc2: NFATc2-specific LxVP peptide (SILLVPPTWPKPLVP)
competition of GST-NFATc1 interaction with CN ([3]; 32 μM peptide, FIG. 6A): not capable of altering the NFAT-CN binding | competition of CN binding to GST-NFATc2 ([4]; competitor peptides at 32 μM or 200 μM, FIG. 4A): incapable of competing the binding of NFATc2 to CN

competition of GST-NFATc2 binding to CN ([4]; 50 μM peptide, dose-dependent competition, FIG. 5): only a partial inhibiting effect | competition of binding of CN to GST-LxVPc1 [6]: competed the binding of CN to GST-LxVPc1
Substance: PxIxITc2: PxIxIT peptide corresponding to NFATc2 (SGLSPRIEITPSHEL)
competition of CN binding to GST-NFATc2 ([4]; 100 μM peptide, FIG. 4B): efficiently blocked the interaction of CN with NFATc2 | effect on phosphatase activity of CN on RII peptide [5]: failed in the inhibition of phosphatase activity

Reference: patent US20100081624A1, “SELECTIVE PEPTIDES THAT INHIBIT THE BIOLOGICAL ACTIVITY OF CALCINEURIN” (Consejo Superior de Investigaciones Cientficas, priority 2005, published 2010)
